Source: article PMC6656757, “Structural insights into E1 recognition and the ubiquitin-conjugating activity of the E2 enzyme Cdc34” (Nature Communications, 2019)
One block for each molecule: values may come before it.

Legend:
S. pombe Uba1 (S. pombe) = molecular target: T1, S. pombe Uba1 (S. pombe) (UniProt O94609)
T1 sequence: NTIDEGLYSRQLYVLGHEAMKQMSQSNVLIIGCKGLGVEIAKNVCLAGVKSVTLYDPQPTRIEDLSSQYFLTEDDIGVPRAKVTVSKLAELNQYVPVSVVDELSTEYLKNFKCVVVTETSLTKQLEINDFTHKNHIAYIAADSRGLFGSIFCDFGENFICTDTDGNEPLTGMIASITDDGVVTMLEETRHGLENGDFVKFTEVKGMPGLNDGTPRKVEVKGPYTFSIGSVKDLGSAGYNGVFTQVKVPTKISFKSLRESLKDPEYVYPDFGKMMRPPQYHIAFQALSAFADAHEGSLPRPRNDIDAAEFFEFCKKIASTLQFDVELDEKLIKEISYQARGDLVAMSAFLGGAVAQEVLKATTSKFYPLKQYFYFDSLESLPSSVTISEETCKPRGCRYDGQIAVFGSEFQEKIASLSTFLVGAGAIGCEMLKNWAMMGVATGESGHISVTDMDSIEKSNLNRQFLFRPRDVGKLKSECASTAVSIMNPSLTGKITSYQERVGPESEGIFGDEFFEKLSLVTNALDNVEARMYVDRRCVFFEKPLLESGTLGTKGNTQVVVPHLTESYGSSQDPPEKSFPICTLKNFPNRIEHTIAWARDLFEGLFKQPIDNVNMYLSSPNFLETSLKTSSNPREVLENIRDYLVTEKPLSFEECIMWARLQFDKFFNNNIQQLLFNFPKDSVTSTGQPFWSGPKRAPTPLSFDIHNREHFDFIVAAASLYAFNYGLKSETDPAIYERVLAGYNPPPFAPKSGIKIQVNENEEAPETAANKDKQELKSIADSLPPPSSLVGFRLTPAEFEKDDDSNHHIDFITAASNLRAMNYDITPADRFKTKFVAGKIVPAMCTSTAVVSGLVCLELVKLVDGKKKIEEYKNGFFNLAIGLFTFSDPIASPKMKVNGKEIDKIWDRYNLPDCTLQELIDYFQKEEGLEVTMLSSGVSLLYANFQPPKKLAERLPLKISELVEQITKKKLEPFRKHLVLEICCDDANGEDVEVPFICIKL

[1] = molecular target: T2, S. cerevisiae Uba1 (a.a. 11–1024) (S. cerevisiae, UniProt P22515 11-1024, in the crystal: disulfide bond between the Uba1 and Cdc34 catalytic cysteines (cross-link)); experiment: crystal structure; S. cerevisiae Uba1-Cdc34^Δdist held by a disulfide bond between the catalytic cysteines, mixed with Ub, 1 mM ATP and 5 mM MgCl2; crystals at 18 °C in 0.2 M ammonium sulfate, 25% PEG 3,350, 0.1 M Bis-Tris pH 6.5; 2.07 Å; two copies in the asymmetric unit; conditions: both partners purified
T2 construct: residues 11-773 and 797-1024 built in the model; Cross-linked to Cdc34 only for the crystal; not cross-linked in the thioester transfer assays; also called ScUba1; E1; source: E. coli BL21 (DE3) Codon Plus, purified (Ni-NTA, gel filtration, MonoQ)
T2 sequence (P22515 11-1024): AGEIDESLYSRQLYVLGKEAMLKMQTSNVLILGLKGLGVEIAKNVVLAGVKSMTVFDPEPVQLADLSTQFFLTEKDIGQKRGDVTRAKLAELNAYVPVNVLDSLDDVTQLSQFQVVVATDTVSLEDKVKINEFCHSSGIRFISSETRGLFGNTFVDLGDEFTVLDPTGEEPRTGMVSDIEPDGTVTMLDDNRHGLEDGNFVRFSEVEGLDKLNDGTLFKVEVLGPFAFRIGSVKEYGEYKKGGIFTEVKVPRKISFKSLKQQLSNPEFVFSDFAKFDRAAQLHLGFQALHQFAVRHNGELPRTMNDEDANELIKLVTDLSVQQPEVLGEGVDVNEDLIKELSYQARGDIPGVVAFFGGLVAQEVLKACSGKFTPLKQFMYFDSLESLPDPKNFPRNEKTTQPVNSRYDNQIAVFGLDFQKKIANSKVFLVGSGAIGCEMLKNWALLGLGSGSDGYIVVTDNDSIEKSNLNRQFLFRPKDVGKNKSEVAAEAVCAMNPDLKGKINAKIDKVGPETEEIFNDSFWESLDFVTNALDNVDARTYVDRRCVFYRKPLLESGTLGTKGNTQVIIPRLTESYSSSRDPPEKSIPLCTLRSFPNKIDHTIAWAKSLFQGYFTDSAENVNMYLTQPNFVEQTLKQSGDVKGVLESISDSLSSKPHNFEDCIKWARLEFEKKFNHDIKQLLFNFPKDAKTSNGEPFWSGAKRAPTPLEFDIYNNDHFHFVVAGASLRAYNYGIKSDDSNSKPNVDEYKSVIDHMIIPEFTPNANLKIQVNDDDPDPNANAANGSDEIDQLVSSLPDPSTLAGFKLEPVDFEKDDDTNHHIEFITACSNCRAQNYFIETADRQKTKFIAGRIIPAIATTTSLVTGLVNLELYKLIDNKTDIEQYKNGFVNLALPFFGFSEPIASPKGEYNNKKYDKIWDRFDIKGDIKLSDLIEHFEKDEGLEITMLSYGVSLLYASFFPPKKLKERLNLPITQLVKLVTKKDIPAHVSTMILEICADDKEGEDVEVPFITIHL

E1-E2 thioester transfer assay: Ubc4 K4S (fold loss of activity) (S. pombe Uba1 (S. pombe)): 2
Molecule: Ubc4 K4S (from UniProt P46595 1-147) (enzyme)

binding result [1]: binds
B1: S. cerevisiae Cdc34^Δdist (enzyme, UniProt P14682 1-195, looked up)
chain: MSSRKSTASSLLLRQYRELTDPKKAIPSFHIELEDDSNIFTWNIGVMVLNEDSIYHGGFFKAQMRFPEDFPFSPPQFRFTPAIYHPNVYRDGRLCISILHQSGDPMTDEPDAETWSPVQTVESVLISIVSLLEDPNINSPANVDAAVDYRKNPEQYKQRVKMEVERSKQDIPKGFIMPTSESAYISQSKLDEPES
modifications: in the crystal with Uba1: disulfide bond between the Uba1 and Cdc34 catalytic cysteines (cross-link)
notes: Cdc34, E2 ubiquitin-conjugating enzyme, S. cerevisiae; construct lacking CTD^dist (residues 196-295), made by a stop codon in Cdc34^FL; residues 3-102 and 112-181 built in the complex; Used here also as the wild-type Cdc34 of the thioester transfer assays with Uba1 mutants; also called ScCdc34^Δdist; source: E. coli BL21 (DE3) Codon Plus, purified

E1-E2 thioester transfer assay (50 nM E1, 60 s): Ubc15 K12A (fold loss of activity) (S. pombe Uba1 (S. pombe)): 5
B2: Ubc15 K12A (enzyme)
chain: MPSSASEQLLRAQLKEIQKNPPQGFSVGLVDDKSIFEWEVMIIGPEDTLYEGGFFHATLSFPQDYPLMPPKMKFTTEIWHPNVHPNGEVCISILHPPGDDKYGYEDAGERWLPVHSPETILISVISMLSSPNDESPANIDAAKEFRENPQEFKKRVRRLVRRSIEMI
